Results as given in patent US20210139892, “COMPOSITIONS AND METHODS FOR DELIVERY OF RNA TO A CELL” (The Regents of the University of California, published 2021).
Substitutions are numbered along the chain they refer to.

Key:
[1] = target: T1, U1A-ppTG21 conjugate (U1A Cys variant disulfide-linked to ppTG21 endosomolytic peptide); number of ppTG21 not … (Homo sapiens, UniProt P09012 SEQ:2-98); experiment: BLI; biotin-Cas9 RNP immobilised; 0.1-6 uM conjugate; binding persists ~900 s; conditions: sgRNA with three U1A stem-loop hairpins
T1 chain: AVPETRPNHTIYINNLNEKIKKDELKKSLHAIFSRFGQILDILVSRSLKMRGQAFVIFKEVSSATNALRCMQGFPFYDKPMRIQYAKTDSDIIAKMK
Source text: (§1) Biolayer interferometry (BLI) was used to assess the capacity of Cas9 RNPs containing sgRNA variants to bind U1A (or U1A-ppTG21 conjugates) as well as to assess the persistence of any binding events. These assays approximated the experimental design described in Richardson et al. (Nat Biotechnol. 2016 March; 34(3):339-44. doi: 10.1038/nbt.3481). These experiments relied on a Cas9 protein covalently, site-specifically labeled with a biotin moiety, allowing loading onto a BLI sensor bearing streptavidin. The instrument used was an Octet Red 384. The buffer used was 20 mM HEPES, pH 7.5, 100 mM KCl, 10% Glycerol, 0.01 mg/ml Heparin, 0.01% IGEPAL. The loading step of the experiment used Cas9 RNP at 20 nM in the wells. U1A wells contained 100 nM, 330 nM, or 1 μM U1A. […] In contrast to the noSL RNP experiment, the SLabub RNP was markedly bound by the U1A, and the binding persisted for the ˜2000 s (˜33 min) duration of the dissociation phase (FIG. 15A). The SLabub RNP experiment was repeated using U1A-ppTG21 conjugate in the wells at concentrations spanning 100 nM to 6 μM (FIG. 15B).

[2] = target: T2, U1A N-terminal RNA-binding domain (Y31H, Q36R; exact Cys variant used in BLI not stated) (Homo sapiens, UniProt P09012 SEQ:2-98); experiment: BLI; biotin-Cas9 RNP immobilised; 0.1-1 uM U1A; binding persists ~2000 s; 20 mM HEPES pH 7.5, 100 mM KCl, 0.01 mg/ml heparin; conditions: tags: none; N-terminal Met removed in E. coli; sgRNA with three U1A stem-loop hairpins
T2 chain: T1 chain with C70S
Source text: as §1

[3] = target: T1, U1A-ppTG21 conjugate (U1A Cys variant …); experiment: BLI; biotin-RNA immobilised; 0.33-333 nM conjugate; binding persists ~2000 s; conditions: label: 5' biotin; hairpin
Source text: as §1
(§2) The concentrations of U1A-ppTG21 conjugate in the wells covered the range of 0.33-333 nM. Substantial binding was observed between the U1 stem loop and the U1A-ppTG21 conjugate, and this binding persisted for the ˜2000 s (˜33 min) of the dissociation phase (FIG. 15C).

[4] = target: T2, U1A N-terminal RNA-binding domain …; experiment: BLI; biotin-Cas9 noSL RNP immobilised; 0.1-1 uM U1A; no substantial binding; conditions: tags: none; N-terminal Met removed in E. coli; sgRNA scaffold, no U1A site
Source text: as §1

[5] = target: T1, U1A-ppTG21 conjugate (U1A Cys variant …); experiment: BLI; biotin-RNA immobilised; 0.33-333 nM conjugate; not substantially bound; conditions: label: 5' biotin; hairpin
Source text: as §1, §2

B1: SLabub sgRNA (EMX1) (ssRNA)
RNA: GUCACCUCCAAUGACUAGGGGUUUAAGAGCUAUGGAUCAUUGCACUCCGAUCCAUAGCAAGUUUAAAUAAGGCUAGUCCGUUAUCAACUUGUCGAGGCUAAGUCGCAUUGCACUCCGCGACAGCACAAGCCCGCUGCCAUUGCACUCCGGCAGCAGGGAACUCGUCAAGUGGCACCGAGUCGGUGCUUUUUUU
- binding result [1]: binds
- binding result [2]: binds

Binder: AAUCCAUUGCACUCCGGAUU (ssRNA) [U1 RNA stem loop 2]
- binding result [3]: binds

B2: noSL sgRNA (EMX1) (ssRNA)
RNA: GUCACCUCCAAUGACUAGGGGUUUAAGAGCUAUGCUGGAAACAGCAUAGCAAGUUUAAAUAAGGCUAGUCCGUUAUCAACUUGAAAAAGUGGCACCGAGUCGGUGCUUUUUUU
- binding result [4]: no binding

Binder: AAUCCAUUCAUGUACCGGAUU (ssRNA) [U2 RNA stem loop negative control]
- binding result [5]: no binding
